Experimental data taken from patent publication US20090297524A1 (DOMANTIS, published 2009).

T1: Recombinant human CD40L (human, UniProt P29965 108-261, limits assumed)
T1 construct: also called CD40 ligand
T1 sequence (looked up): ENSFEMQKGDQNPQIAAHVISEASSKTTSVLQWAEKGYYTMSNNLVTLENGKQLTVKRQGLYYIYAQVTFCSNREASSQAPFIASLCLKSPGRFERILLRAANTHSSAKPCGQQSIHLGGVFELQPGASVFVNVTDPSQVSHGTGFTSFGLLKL

B1: DOM-55 (other)
VH: EVQLLESGGGLVQPGGSLRLSCAASGFTFARYEMGWVRQAPGKGLEWVSRITAQGLGTYYADSVKGRFTISRDNSKNTLYLQMNSLRAEDTAVYYCAKYLTDFSSGHQEFDYWGQGTLVTVSS
notes: VH dAb
B2: DOM-44 (other)
VH: EVQLLESGGGLVQPGGSLRLSCAASGFTFTSYEMGWVRQAPGKGLEWVSSIEPTGITTYYADSVKGRFTISRDNSKNTLYLQMNSLRAEDTAVYYCAKPHFTELGFDYWGQGTLVTVSS
notes: VH dAb
B3: DOM-12 (other)
VH: EVQLLESGGGLVQPGGSLRLSCAASGFTFRLYEMAWVRQAPGKGLEWVSGIDILGSRTYYADSVKGRFTISRDNSKNTLYLQMNSLRAEDTAVYYCAKDLSWQGFDYWGQGTLVTVSS
notes: VH dAb
B4: DOM-45 (other)
VH: EVQLLESGGGLVQPGGSLRLSCAASGFTFGNYAMAWVRQAPGKGLEWVSKIGAQGLHTYYAGSVKGRFTISRDNSKNTLYLQMNSLRAEDTAVYYCAKQTTMDYERFDYWGQGTLVTVSS
notes: VH dAb
B5: DOM-18 (other)
VH: EVQLLESGGGLVQPGGSLRLSCAASGFTFPEYDMTWVRQAPGKGLEWVSYISSDGYSTYYADSVKGRFTISRDNSKNTLYLQMNSLRAEDTAVYYCAKPHGSPREFDYWGQGTLVTVSS
notes: VH dAb
B6: DOM-34 (other)
VL: DIQMTQSPSSLSASVGDRVTITCRASQWIGDSLSWYQQKPGKAPKLLIYFASYLQSGVPTRFSGSGSGTDFTLTISSLQPEDFATYYCQQYFENPVTFGQGTKVGIKR
notes: Vk dAb
B7: DOM-50 (other)
VL: DIQMTQSPSSLSASVGDRVTITCRASQWIGDSLSWYQQKPGKAPKLLIYFGSYLQSGVPSRFSGSGSGTDFTLTISSLQPEDSATYYCQQYQYVPSTFGQGTKVEIKQ
notes: Vk dAb
B8: DOM-48 (other)
VL: DIQMTQSPSSLSASVGDRVTITCRASQWIGDSLSWYQQKPGKAPKLLIYFGSYLQNGVPSRFSGSGSGTDFTLTISSLQPEDFATYYCQQYMITPTTFGQGTKVEIKR
notes: Vk dAb
B9: DOM.198 (other)
VH: EVQLLESGGGLVQPGGSLRLSCAASGFTFERYNMSWVRQAPGKGLEWVSSIRPRGGKTYYADSVKGRFTISRDNSKNTLYLQMNSLRAEDTAVYYCAKWRREGYTGSKFDYWGQGTLVTVSS
notes: VH dAb
B10: DOM-59 (other)
VH: EVQLLESGGGLVQPGGSLRLSCAASGFTFLDYAMGWVRQAPGKGLEWVSTISPMGMGTYYADSVKGRFTISRDNSKNTLYLQMNSLRAEDTAVYYCAKSSAISFTSDISNFDYWGQGTLVTVSS
notes: VH dAb
B11: DOM-56 (other)
VH: EVQLLESGGGLVQPGGSLRLSCAASGFTFNDYTMGWVRQAPGKGLEWVSWIHGTGGQTYYADSVKGRFTISRDNSKNTLYLQMNSLRAEDTAVYYCAKALADRSGGVVEFDYWGQGTLVTVSS
notes: VH dAb
B12: DOM-32 (other)
VH: EVQLLESGGGLVQPGGSLRLSCAASGFTFEVYQMGWVRQAPGKGLEWVSFIVPGGDLTYYADSVKGRFTISRDNSKNTLYLQMNSLRAEDTAVYYCAETWPEFDYWGQGTLVTVSS
notes: VH dAb
B13: DOM-54 (other)
VH: EVQLLESGGGLVQPGGSLRLSCAASGFTFTAYRMAWVRQAPGKGLEWVSWISPSGSGTYYADSVKGRFTISRDNSKNTLYLQMNSLRAEDTAVYYCAKTLTDSPSGHYEFDYWGQGTLVTVSS
notes: VH dAb
B14: DOM.200 (other)
VH: EVQLLESGGGLVQPGGSLRLSCAASGFTFTNYSMGWVRQAPGKGLEWVSTIRPNGTKTYYADSVKGRFTISRDNSKNTLYLQMNSLRAEDTAVYYCAKRSSAHLQRFDYWGQGTLVTVSS
notes: VH dAb
B15: DOM-17 (other)
VH: EVQLLESGGGLVQPGGSLRLSCAASGFTFEDYGMGWARQAPGKGLEWVSSIGPLGLWTYYADSAKGRFTISRDNSKNTLYLQMNSLRAEDTAVYYCAKSPLEGLITNFDYWGQGTLVTVSS
notes: VH dAb
B16: DOM-53 (other)
VL: DIQMTQSPSSLSASVGDRVTITCRASQAIYGGLRWYQQKPGKAPKLLIYGESMLQSGVPSRFSGSGSGTDFTLTISSLHPEDFATYYCQQVYHKPFTFGQGTKVEIKR
notes: Vk dAb
B17: DOM-61 (other)
VH: EVQLLESGGGLVQPGGSLRLSCAASGFTFAAYAMTWVRQAPGKGLEWVSYISPNGTATYYADSVKGRFTISRDNSKNTLYLQMNSLRAEDTAVYYCAEYVGMRWNSFDYWGQGTLVTVSS
notes: VH dAb
B18: DOM-39 (other)
VL: DIQMTQSPSSLSASVGDCVTITCRASQNIDGLLWWYQQKPGKAPKLLIYAGSGLQSGVPSRFSGSGSGTDFTLTISSLQPEDFATYYCQQKAFEPFTFGQGTKVEIKR
notes: Vk dAb
B19: DOM.204 (other)
VH: EVQLLESGGGLVQPGGSLRLSCAASGFTFKRYSMAWVRQAPGKGLEWVSDIGPRGFSTYYADSVKGRFTISRDNSKNTLYLQMNSLRAEDTAVYYCAKVGRGQRDTSQPFDYWGQGTLVTVSS
notes: VH dAb
B20: DOM.201 (other)
VH: EVQLLESGGGLVQPGGSLRLSCAASGFTFGNYSMGWVRQAPGKGLEWVSSIGRHGGRTYYADSVKGRFTISRDNSKNTLYLQMNSLRAEDTAVYYCAKKGSTYPRFDYWGQGTLVTVSS
notes: VH dAb
B21: DOM.203 (other)
VH: EVQLLESGGGLVQPGGSLRLSCAASGFTFSNYTMGWVRQAPGKGLEWVSSIRPDGKITYYADSVKGRFTISRDNSKNTLYLQMNSLRAEDTAVYYCAEVYSSCAMCTPLLFDYWGQGTLVTVSS
notes: VH dAb
B22: DOM-21 (other)
VH: EVQLLESGGGLVQPGGSLRLSCAASGFTFANYEMGWARQAPGKGLEWVSVISEWGYSTYYADSAKGRFTISRDNSKNTLYLQMNSLRAEDTAVYYCAKLVGGTQYEFDYWGQGTLVTVSS
notes: VH dAb
B23: DOM-13 (other)
VH: EVQLLESGGGLVQPGGSLRLSCAASGFTFSYYSMYWVRQAPGKGLEWVSSISPFGWGTYYADSVKGRFTISRDNSKDTLYLQMNSLRAEDTAVYYCAKYGETSGPISENFDYWGQGTLVTVSS
notes: VH dAb
B24: DOM-40 (other)
VH: EVQLLESGGGLVQPGGSLRLSCAASGFTFKAYDMGWVRQAPGKGLEWVSQIGRDGSFTYYADSVKGRFTISRDNSKNTLYLQMNSLRAEDTAVYYCAKPRRYAIFTFDRGQGTLVTVSS
notes: VH dAb
B25: DOM.197 (other)
VH: EVQLLESGGGLVQPGGSLRLSCAASGFTFAKYKMWWVRQAPGKGLEWVSSITPKGHSTYYADSVKGRFTISRDNSKNTLYLQMNSLRAEDTAVYYCAKRPMTPFDYWGQGTLVTVSS
notes: VH dAb
B26: DOM.199 (other)
VH: EVQLLESGGGLVQPGGSLRLSCAASGFTFERYGMTWVRQAPGKGLEWVSSIWPRGQKTYYADSVKGRFTISRDNSKNTLYLQMNSLRAEDTAVYYCAKGNSRYVFDYWGQGTLVTVSS
notes: VH dAb
B27: DOM-16 (other)
VH: EVQLLESGGGLVQPGGSLRLSCAASGFTFMEYAMIWVRQAPGKGLEWVSIISPLGLSTYYADSVKGRFTISRDNSKNTLYLQMNSLRAEDTAVYYCAKYQDSSDSQYTNFDYWGQGTLVTVSS
notes: VH dAb
B28: DOM-33 (other)
VL: DIQMTQSPSSLSASVGDRVTITCRASQTIGESLHWYQQKPGKAPRLLIYFASLLQSGVPSRFSGSGSGTDFTLTISSLQPEDFATYYCQQHHMLPSTFGQGTKVEIKR
notes: Vk dAb
B29: DOM-46 (other)
VH: EVQLLESGGGLVQPGGSLRLSCAASGFTFELYAMAWVRQAPGKGLEWVSGIGAVGETTYYADSVKGRFTISRDNSKNTLYLQMNSLRAEDTAVYYCAKEANNLSDNLVFDYWGQGTLVTVSS
notes: VH dAb
B30: DOM.207 (other)
VH: EVQLLESGGGLVQPGGSLRLSCAASGFTFDKYLMSWVRQAPGKGLEWVSGIEPLGDVTYYADSVKGRFTISRDNSKNTLYLQMNSLRAEDTAVYYCAKEASGDFDYWGQGTLVTVSS
notes: VH dAb
B31: DOM-51 (other)
VL: DIQMTQSPSSLSASVGDRVTITCRASQPIVDELDWYQQKPGKAPKLLIYAASILQSGVPSRFSGSGSGTDFTLTISSLQPEDFATYYCHQWSTYPTTFGQGTKVEIKR
notes: Vk dAb
B32: DOM.209 (other)
VH: EVQLLESGGGLVQPGGSLRLSCAASGFTFADYEMWWVRQAPGKGLEWVSAISRQGFATYYADSVKGRFTISRDNSKNTLYLQMNSLRAEDTAVYYCAKDLERDDFDYWGQGTLVTVSS
notes: VH dAb
B33: DOM.202 (other)
VH: EVQLLESGGGLVQPGGSLRLSCTASGFTFSHYEMGWVRQAPGKGLEWVSSIEPFGGGTYYADSVKGRFTISRDNSKNTLYLQMNSLRAEDTAVYYCAKVYPQGSFDYWGQGTLVTVSS
notes: VH dAb

molecular target: T1, Recombinant human CD40L; assay: CD40L/CD40-Fc receptor binding assay;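 note: plate assay with coated human CD40-Fc, bound ligand detected via HRP anti-biotin antibody and TMB, OD at 450 nm, lower signal indicates stronger inhibition by dAb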
Method: A 96 well Nunc Maxisorp assay plate was coated overnight at 4° C. with 100 μl per well of recombinant human CD40/Fc (R&D Systems) at 0.5 μg/ml in carbonate buffer. The plate was washed 3 times with 300 μl of 0.05% Tween/PBS and 3 times with 300 μl of PBS using a Tecan plate washer. The wells were blocked using 200 μl of PBS containing 2% (w/v) BSA and incubated for a minimum of 1 h at room temperature. The wells were washed as above, then 50 μl of purified dAb protein (or unpurified supernatant containing dAb from a micro-culture expression) was added to each well.
The plate was washed as described above, then 100 μl HRP conjugated anti-biotin antibody (1:5000 dilution in diluent) added to each well and the plate incubated for 1 hr at room temperature. The plate was washed again as described above using a Tecan plate washer and the assay developed using 100 μl of SureBlue 1-Component TMB MicroWell Peroxidase solution (the plate was left at room temperature for up to 20 min). The reaction was stopped by the addition of 100 μl M hydrochloric acid. The OD₄₅₀ₙₘ of the plate was assayed within 30 minutes of acid addition. The OD₄₅₀ₙₘ is proportional to the amount of bound streptavidin-HRP conjugate, therefore the greater the degree of dAb inhibition the lower the OD₄₅₀ₙₘ of the resulting signal.

Binding result, binds:
B1
B2
B3
B4
B5
B6
B7
B8
B9
B10
B11
B12
B13
B14
B15
B16
B17
B18
B19
B20
B21
B22
B23
B24
B25
B26
B27
B28
B29
B30
B31
B32
B33
